Target: wild-type metallo-β-lactamase L1 (UniProt P52700)
Assay: SEC

“spin-labeled T163C/K286C mutant of metallo-β-lactamase L1 (enzyme)” gave a stoichiometry N of 4.

From PMC4733626
